Target: T1, Rpn1 regulatory subunit 1 (Rpn1 394-568), as used for NMR titration and ITC (human, UniProt Q13200 394-568)
T1 construct: source: E. coli BL21 (DE3), purified (size exclusion chromatography)
Assay: ITC; VP-ITC, 25°C, NMR buffer; 20 µM Rpn1 regulatory subunit 1 in the cell, 25 injections of 6 µL of 400 µM UBL domain; one-site fit
Details: both partners purified

T1 sequence (Q13200 394-568): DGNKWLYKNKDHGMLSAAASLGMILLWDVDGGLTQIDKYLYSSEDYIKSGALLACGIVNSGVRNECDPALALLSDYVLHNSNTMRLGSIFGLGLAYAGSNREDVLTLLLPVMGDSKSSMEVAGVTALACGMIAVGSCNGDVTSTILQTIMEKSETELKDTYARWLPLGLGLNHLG

B1: UBL domain of hUBLCP1 (UBLCP1 1-81), as used for NMR and ITC (domain or fragment, human, UniProt Q8WVY7 1-81, looked up)
chain: MALPIIVKWGGQEYSVTTLSEDDTVLDLKQFLKTLTGVLPERQKLLGLKVKGKPAENDVKLGALKLKPNTKIMMMGTREES
notes: UBL domain of human UBLCP1, residues 1-81; 15N-labelled (M9 medium) for the NMR titration; also called 15N-labeled UBL domain; source: E. coli BL21 (DE3), purified (size exclusion chromatography)
**Q.** For B1, which Kd is on record?
**A.** Its Kd is 10.3 µM.

**Q.** And the dH?
**A.** Its dH is -53.8 kcal/mol.

Reference: publication PMC3646893, “Solution Structure and Rpn1 Interaction of the UBL Domain of Human RNA Polymerase II C-Terminal Domain Phosphatase” (PLoS ONE, 2013)
